# In paper PMC4687705, “Plasma levels of OLFM4 in normals and patients with gastrointestinal cancer” (Journal of Cellular and Molecular Medicine, 2015):
# B1: Olfactomedin 4 (OLFM4) (natural protein)
# chain: not shown
# modifications: highly glycosylated (sites not given); intermolecular disulphide bonds (cysteines not given)
# notes: Olfactomedin 4, human, native protein from specific granules of neutrophils; 72 kD under reducing conditions; Multimer of unstated size; also called hGC-1; GW112
# Molecular target: the molecule itself
# Assay: western blot after SDS-PAGE under reducing and non-reducing conditions; isolated specific granules of human neutrophils, blotted with anti-OLFM4 clone #49; 12% polyacrylamide gels
protein,measurement,value
B1,binding result,binds
